What was measured:
Format in all cases: cell-based
LRP = LRP (Homo sapiens, UniProt Q07954); test: Degradation of activated α2-macroglobulin (LRP ligand); conditions: leptin up to 2 μg/mL
LSR β = molecular target: T1, LSR β (Homo sapiens, UniProt Q86X29); test: 125I-leptin binding in CHO-K1 cells transiently transfected with LSR β; conditions: transient transfection with LSR β plasmid; 10 ng/mL 125I-leptin
T1 construct: The full-length LSR α, α′, and β clones were reconstructed in pTracer-CMV2 vector; expressed in transfected cells; host or cells: CHO-K1, transient (Fugene), pTracer-CMV2
T1 sequence (Q86X29 1-581 isoform Q86X29-5): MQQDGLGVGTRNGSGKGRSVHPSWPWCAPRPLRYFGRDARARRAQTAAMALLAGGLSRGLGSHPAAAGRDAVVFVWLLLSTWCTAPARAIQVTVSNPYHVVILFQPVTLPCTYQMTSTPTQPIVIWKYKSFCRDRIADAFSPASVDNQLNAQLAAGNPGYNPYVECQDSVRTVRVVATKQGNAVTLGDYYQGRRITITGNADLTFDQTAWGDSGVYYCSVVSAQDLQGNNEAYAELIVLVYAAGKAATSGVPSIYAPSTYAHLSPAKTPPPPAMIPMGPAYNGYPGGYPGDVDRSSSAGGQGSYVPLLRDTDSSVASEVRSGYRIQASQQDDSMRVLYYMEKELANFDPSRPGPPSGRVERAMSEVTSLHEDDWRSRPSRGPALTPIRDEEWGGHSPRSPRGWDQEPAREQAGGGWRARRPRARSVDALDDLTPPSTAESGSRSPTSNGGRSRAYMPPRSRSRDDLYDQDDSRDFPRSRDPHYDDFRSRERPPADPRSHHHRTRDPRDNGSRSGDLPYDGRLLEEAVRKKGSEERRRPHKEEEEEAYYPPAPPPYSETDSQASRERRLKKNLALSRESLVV
Description: (§1) FIGS. 3A, 3B, 3C, and 3D show the effect of LSR subunit transfection on leptin binding and degradation in CHO-K1 cells. For FIG. 3A, CHO-K1 cells were transfected with increasing concentrations of the α, (□), α′ (▪) or β (◯) LSR plasmid, or vector alone (●) using Fugene transfection reagent. After 48 h, the cells were washed once in PBS and incubated at 37° C. for 2 h with 10 ng/mL of ^125I-leptin in DMEM containing 0.2% (w/v) BSA, 2 mM CaCl2 and 5 mM HEPES, pH 7.4 (Buffer A). The monolayers were washed and lysed with 0.1 N NaOH containing 0.24 mM EDTA, and the lysates were counted. The results are shown as the amount of cell-associated ^125I-leptin. For FIG. 3B, lysates were prepared from CHO-K1 wild type, stable transfectants of vector or LSR α′ subunit, and PLC, and separated on a 10% SDS-polyacrylamide gel under denaturing and reduced conditions. After transfer to nitrocellulose, Western blots were performed using anti-LSR 170 antibody (can also be done with the human equivalent, 93A). […] For FIGS. 3C and 3D, confluent monolayers of stable-transfected cell lines expressing LSR α′ subunit (▪) or vector alone (●) were washed once in PBS and incubated at 37° C. for 2 h with increasing concentrations of ^125I-leptin in Buffer A. The amount of cell-associated (FIG. 3C) and degraded (FIG. 3D) ^125I-leptin was then measured as described herein. […]

LDL-receptor = LDL-receptor (Homo sapiens, UniProt P01130); test: Degradation of LDL by the LDL-receptor; conditions: leptin up to 2 μg/mL
LSR α = molecular target: T2, LSR α (Homo sapiens, UniProt Q86X29); test: 125I-leptin binding in CHO-K1 cells transiently transfected with LSR α; conditions: transient transfection with LSR α plasmid; 10 ng/mL 125I-leptin
T2 construct: The full-length LSR α, α′, and β clones were reconstructed in pTracer-CMV2 vector; expressed in transfected cells; host or cells: CHO-K1, transient (Fugene), pTracer-CMV2
T2 sequence (Q86X29 1-649): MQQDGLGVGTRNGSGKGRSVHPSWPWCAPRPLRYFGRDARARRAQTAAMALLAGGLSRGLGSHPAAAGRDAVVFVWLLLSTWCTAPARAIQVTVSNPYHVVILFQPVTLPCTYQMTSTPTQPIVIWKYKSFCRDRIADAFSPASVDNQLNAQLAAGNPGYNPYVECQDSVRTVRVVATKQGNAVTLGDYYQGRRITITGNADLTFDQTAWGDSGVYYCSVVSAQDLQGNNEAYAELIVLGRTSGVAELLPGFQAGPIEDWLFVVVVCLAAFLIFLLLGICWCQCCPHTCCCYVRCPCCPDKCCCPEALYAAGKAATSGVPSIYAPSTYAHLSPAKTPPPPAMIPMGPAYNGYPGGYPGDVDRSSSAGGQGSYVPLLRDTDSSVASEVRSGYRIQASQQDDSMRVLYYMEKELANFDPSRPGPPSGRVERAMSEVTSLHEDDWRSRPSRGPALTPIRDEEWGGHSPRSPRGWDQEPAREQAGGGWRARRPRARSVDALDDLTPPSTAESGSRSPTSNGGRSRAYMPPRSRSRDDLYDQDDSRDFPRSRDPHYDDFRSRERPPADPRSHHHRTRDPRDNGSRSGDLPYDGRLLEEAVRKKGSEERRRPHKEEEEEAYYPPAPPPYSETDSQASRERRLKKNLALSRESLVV
Description: as §1

Sequence of LRP (Q07954 20-4544): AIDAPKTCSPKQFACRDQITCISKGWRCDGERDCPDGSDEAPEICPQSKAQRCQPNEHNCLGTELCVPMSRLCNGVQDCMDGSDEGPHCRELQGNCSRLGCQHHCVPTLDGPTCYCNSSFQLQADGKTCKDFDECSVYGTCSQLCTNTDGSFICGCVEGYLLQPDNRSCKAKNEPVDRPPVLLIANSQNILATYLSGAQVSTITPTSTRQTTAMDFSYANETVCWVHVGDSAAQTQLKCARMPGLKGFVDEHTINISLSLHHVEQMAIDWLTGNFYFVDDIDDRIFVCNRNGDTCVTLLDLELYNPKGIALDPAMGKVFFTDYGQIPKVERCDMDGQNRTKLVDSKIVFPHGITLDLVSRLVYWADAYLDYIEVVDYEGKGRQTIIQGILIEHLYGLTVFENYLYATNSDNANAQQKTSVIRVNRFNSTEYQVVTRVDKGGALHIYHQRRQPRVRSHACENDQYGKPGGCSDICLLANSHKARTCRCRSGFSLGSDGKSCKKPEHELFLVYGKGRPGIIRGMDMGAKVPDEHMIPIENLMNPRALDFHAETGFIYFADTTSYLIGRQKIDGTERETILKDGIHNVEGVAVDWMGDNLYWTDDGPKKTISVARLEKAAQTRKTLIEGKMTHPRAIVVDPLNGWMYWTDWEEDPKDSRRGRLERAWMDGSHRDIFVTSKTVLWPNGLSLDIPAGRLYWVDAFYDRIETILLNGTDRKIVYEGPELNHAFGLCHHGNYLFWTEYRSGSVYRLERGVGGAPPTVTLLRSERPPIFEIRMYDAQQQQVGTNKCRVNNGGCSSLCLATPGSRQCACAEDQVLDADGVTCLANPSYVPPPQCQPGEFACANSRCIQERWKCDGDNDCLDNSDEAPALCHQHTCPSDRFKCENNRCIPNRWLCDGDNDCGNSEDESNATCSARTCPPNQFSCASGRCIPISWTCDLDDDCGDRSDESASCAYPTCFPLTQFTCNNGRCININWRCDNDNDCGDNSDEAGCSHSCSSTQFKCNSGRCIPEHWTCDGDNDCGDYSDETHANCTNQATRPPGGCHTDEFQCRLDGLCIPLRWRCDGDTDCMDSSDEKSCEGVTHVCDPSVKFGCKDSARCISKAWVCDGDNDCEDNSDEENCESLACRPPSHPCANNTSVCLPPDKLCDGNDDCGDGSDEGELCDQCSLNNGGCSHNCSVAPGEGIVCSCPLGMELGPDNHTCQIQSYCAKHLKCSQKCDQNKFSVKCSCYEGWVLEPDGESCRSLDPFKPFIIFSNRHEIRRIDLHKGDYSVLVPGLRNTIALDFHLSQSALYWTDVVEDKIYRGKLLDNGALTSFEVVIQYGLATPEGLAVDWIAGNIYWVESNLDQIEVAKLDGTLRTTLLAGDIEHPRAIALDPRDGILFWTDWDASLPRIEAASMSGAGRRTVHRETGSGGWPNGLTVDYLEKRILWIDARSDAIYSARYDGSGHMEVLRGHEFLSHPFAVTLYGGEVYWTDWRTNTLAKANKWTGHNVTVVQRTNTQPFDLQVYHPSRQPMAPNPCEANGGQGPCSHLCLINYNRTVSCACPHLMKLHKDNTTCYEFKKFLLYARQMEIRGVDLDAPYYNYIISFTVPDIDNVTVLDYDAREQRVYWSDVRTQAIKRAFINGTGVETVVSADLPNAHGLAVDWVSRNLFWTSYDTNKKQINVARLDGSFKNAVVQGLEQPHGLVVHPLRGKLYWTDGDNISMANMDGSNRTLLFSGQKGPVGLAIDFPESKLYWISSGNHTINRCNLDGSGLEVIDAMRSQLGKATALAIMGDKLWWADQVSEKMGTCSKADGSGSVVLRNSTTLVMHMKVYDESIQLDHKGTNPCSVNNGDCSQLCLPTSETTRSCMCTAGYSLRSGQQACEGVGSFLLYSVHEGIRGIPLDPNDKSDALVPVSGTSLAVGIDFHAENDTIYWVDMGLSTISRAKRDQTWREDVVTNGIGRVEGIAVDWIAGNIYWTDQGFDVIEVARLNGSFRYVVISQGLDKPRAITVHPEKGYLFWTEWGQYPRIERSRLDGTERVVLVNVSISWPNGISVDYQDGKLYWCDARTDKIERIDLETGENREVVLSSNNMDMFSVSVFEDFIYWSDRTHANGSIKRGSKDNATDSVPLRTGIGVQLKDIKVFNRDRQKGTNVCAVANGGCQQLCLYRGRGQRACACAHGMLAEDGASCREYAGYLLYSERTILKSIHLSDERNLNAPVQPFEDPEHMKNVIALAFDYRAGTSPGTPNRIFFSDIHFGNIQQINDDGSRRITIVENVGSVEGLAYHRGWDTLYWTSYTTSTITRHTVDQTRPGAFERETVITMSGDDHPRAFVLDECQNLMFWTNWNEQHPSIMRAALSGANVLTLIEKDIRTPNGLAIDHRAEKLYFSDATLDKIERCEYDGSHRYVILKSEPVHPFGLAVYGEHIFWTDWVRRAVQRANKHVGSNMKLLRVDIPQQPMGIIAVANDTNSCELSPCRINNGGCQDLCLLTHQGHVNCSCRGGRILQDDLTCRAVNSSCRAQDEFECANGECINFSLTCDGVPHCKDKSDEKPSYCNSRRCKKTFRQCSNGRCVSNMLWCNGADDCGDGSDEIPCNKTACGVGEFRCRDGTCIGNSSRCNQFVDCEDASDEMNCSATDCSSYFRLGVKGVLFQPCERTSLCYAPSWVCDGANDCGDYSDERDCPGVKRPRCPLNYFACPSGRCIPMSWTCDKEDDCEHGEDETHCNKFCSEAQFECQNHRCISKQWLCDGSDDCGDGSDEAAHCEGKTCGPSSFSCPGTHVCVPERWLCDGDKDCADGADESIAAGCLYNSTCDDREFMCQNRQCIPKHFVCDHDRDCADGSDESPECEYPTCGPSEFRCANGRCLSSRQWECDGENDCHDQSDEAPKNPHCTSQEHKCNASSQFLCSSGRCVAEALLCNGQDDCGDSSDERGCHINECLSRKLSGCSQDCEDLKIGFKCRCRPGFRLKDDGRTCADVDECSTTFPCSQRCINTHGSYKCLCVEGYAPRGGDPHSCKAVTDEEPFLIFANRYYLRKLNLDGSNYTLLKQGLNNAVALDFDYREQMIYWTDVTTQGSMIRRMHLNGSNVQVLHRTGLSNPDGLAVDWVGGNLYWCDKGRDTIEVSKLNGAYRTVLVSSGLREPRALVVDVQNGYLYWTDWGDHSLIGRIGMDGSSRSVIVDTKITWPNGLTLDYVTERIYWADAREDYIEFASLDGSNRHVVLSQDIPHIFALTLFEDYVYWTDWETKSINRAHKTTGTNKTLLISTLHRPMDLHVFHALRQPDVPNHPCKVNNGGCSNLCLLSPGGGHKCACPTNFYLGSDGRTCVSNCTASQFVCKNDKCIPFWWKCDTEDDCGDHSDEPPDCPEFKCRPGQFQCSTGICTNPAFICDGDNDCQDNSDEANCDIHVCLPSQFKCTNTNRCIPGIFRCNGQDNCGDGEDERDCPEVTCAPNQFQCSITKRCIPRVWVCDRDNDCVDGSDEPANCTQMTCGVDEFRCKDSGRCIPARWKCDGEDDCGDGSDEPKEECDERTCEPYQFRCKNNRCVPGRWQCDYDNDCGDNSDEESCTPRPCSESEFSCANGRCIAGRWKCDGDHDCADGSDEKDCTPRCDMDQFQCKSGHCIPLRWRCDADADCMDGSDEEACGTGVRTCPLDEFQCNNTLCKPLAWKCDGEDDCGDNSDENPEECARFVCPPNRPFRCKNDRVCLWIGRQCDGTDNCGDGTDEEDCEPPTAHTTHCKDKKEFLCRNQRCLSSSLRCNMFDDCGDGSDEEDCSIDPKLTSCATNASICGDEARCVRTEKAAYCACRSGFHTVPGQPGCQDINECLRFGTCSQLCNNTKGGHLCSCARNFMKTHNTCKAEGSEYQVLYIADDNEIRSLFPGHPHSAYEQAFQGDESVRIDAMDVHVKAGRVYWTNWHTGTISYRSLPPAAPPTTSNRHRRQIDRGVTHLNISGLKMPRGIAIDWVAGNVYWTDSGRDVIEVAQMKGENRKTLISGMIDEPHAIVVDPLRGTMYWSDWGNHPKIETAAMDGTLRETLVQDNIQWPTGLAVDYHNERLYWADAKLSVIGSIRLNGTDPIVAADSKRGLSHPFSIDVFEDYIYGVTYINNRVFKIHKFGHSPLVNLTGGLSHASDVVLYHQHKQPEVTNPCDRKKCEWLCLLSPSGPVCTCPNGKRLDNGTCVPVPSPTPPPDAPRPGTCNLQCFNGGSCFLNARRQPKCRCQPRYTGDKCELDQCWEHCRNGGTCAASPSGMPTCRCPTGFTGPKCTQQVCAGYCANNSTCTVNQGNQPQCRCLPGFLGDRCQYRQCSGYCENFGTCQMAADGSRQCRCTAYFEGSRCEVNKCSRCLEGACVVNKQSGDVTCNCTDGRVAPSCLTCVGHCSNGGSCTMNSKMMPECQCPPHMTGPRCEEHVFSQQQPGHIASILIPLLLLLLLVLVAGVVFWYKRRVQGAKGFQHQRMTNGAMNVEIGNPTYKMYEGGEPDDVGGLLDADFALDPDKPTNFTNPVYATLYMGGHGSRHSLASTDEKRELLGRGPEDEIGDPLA

- degradation of activated α2-macroglobulin, the preferred LRP ligand (LRP): no detectable effect
- degradation of LDL by the LDL-receptor (LDL-receptor): no detectable effect
Substance: leptin: plasma protein of 16 kDa produced by adipocytes; recombinant human or mouse leptin, species depends on the experiment
- Leptin binding to CHO-K1 cells (LSR β): remained at levels similar to those seen with the vector alone
- Leptin binding to CHO-K1 cells (LSR α): remained at levels similar to those seen with the vector alone
